The nature of the series: collision cross section of modified peptide (TIMS, N2, iRT-aligned); higher = larger / more extended gas-phase ion. Summed up: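 Synthetic peptide pools (~100 fmol/µL in 2% acetonitrile/0.1% formic acid, iRT standard spiked 1:40) were separated on a 120-min nanoflow C18 gradient at 60 °C. They were analysed on a timsTOF Pro/HT (dda-PASEF, nitrogen, ~2.4 mbar) and identified with MaxQuant. 1/K0 was calibrated with three reference ions and aligned run-wise to the median iRT peptide deviation. Collision cross section came from the Mason-Schamp equation, averaging 1–3 technical replicates of the most abundant feature per charge state.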

[1] abbreviates: charge state: 2, modification: Propionyl.
The mark [2] stands for this setting: charge state: 2, modification: Succinyl.
The mark [3] stands for this setting: charge state: 3, modification: Succinyl.
Where [4] appears, read: charge state: 2, modification: Trimethyl (K).
Setting [5] is: charge state: 3, modification: Trimethyl (K).
Setting [6] is: charge state: 2, modification: hydroxyisobutyryl.
Setting [7] is: charge state: 2, modification: Acetyl (K).
[8] abbreviates: charge state: 3, modification: Acetyl (K).
Setting [9] is: charge state: 2, modification: Biotin.
[10] abbreviates: charge state: 2, modification: Butyryl.
[11] abbreviates: charge state: 3, modification: Butyryl.
Where [12] appears, read: charge state: 2, modification: Crotonyl.
[13] abbreviates: charge state: 2, modification: Dimethyl (K).
Setting [14] is: charge state: 3, modification: Dimethyl (K).
[15] abbreviates: charge state: 2, modification: Formyl.
Where [16] appears, read: charge state: 3, modification: Formyl.
The mark [17] stands for this setting: charge state: 2, modification: Glutarylation.
The mark [18] stands for this setting: charge state: 3, modification: Glutarylation.
The mark [19] stands for this setting: charge state: 2, modification: GlyGly (K).
Where [20] appears, read: charge state: 3, modification: GlyGly (K).
Where [21] appears, read: charge state: 2, modification: Malonyl.
Where [22] appears, read: charge state: 2, modification: Methyl (K).
Setting [23] is: charge state: 3, modification: Methyl (K).
[24] abbreviates: charge state: 3, modification: hydroxyisobutyryl.
Setting [25] is: charge state: 2, modification: HexNAc (ST).
Setting [26] is: charge state: 2, modification: Nitro (Y).
Where [27] appears, read: charge state: 2, modification: Phospho (Y).
[28] abbreviates: charge state: 3, modification: HexNAc (ST).

± gives the standard deviation.

In the case of “SSFAYKDQNENR [_SSFAYK(Propionyl)DQNENR_]”, the collision cross section reads like this: under setting [1], 401.75 ± 0.65 Å²; (charge state: 3, modification: Propionyl) 462.04 Å². Regarding SSFAYKDQNENR [_SSFAYK(Succinyl)DQNENR_], the collision cross section under setting [2] came out at 400.73 ± 0.25 Å² and the collision cross section under setting [3] turned out to be 453.96 Å². Consider “SSFAYKDQNENR [_SSFAYK(Trimethyl (K))DQNENR_]”, for which the collision cross section was 417.36 ± 0.75 Å² under setting [4] and 458.31 ± 1.5 Å² under setting [5]. Under setting [6], “SSFAYKDQNENR [_SSFAYK(hydroxyisobutyryl)DQNENR_]” registered a collision cross section of 405.04 ± 0.3 Å². Consider “SSGPGGQNVNKVNSK [_SSGPGGQNVNK(Acetyl (K))VNSK_]”, for which the collision cross section is, setting by setting: under setting [7], 401.59 ± 1.4 Å²; under setting [8], 440.11 ± 2.5 Å². For “SSGPGGQNVNKVNSK [_SSGPGGQNVNK(Biotin)VNSK_]”, the collision cross section runs as follows: under setting [9], 422.28 ± 2 Å²; (charge state: 3, modification: Biotin) 467.62 ± 0.34 Å².

Regarding “SSGPGGQNVNKVNSK [_SSGPGGQNVNK(Butyryl)VNSK_]”, the collision cross section worked out at 405.84 ± 0.57 Å² under setting [10] and 443.95 ± 2 Å² under setting [11]. “SSGPGGQNVNKVNSK [_SSGPGGQNVNK(Crotonyl)VNSK_]” had a collision cross section under setting [12] of 407.39 ± 1.4 Å².

Turning to “SSGPGGQNVNKVNSK [_SSGPGGQNVNK(Dimethyl (K))VNSK_]”, the collision cross section runs as follows: under setting [13], 397.16 ± 1.7 Å²; under setting [14], 437.57 ± 2.1 Å². The sequence “SSGPGGQNVNKVNSK [_SSGPGGQNVNK(Formyl)VNSK_]” yielded a collision cross section under setting [15] of 398.34 ± 0.83 Å² and a collision cross section under setting [16] of 435.41 ± 4.1 Å².

On to “SSGPGGQNVNKVNSK [_SSGPGGQNVNK(Gluratylation)VNSK_]”, for which the collision cross section is given as 409.46 ± 0.95 Å² under setting [17] and 446.64 ± 1.9 Å² under setting [18]. “SSGPGGQNVNKVNSK [_SSGPGGQNVNK(GlyGly (K))VNSK_]”: the collision cross section was determined as 407.13 ± 1.4 Å² under setting [19] and 459.52 ± 3 Å² under setting [20]. As for “SSGPGGQNVNKVNSK [_SSGPGGQNVNK(Malonyl)VNSK_]”, the collision cross section stood at 402.61 ± 1.8 Å² under setting [21] and 439.94 ± 2.2 Å² (charge state: 3, modification: Malonyl). On to “SSGPGGQNVNKVNSK [_SSGPGGQNVNK(Methyl (K))VNSK_]”, for which the collision cross section runs as follows: under setting [22], 397.83 ± 2.2 Å²; under setting [23], 442.38 ± 4.2 Å².

As for “SSGPGGQNVNKVNSK [_SSGPGGQNVNK(Propionyl)VNSK_]”, the collision cross section under setting [1] was 404.47 ± 0.49 Å². With “SSGPGGQNVNKVNSK [_SSGPGGQNVNK(Succinyl)VNSK_]”, the collision cross section by setting is: under setting [2], 404.66 ± 0.55 Å²; under setting [3], 443.1 ± 4 Å². “SSGPGGQNVNKVNSK [_SSGPGGQNVNK(Trimethyl (K))VNSK_]”: the collision cross section reads like this: under setting [4], 400.23 ± 1.6 Å²; under setting [5], 442.26 ± 2.4 Å². Take “SSGPGGQNVNKVNSK [_SSGPGGQNVNK(hydroxyisobutyryl)VNSK_]”: the collision cross section under setting [6] was 407.53 ± 1.1 Å² and the collision cross section under setting [24] is reported as 447.88 ± 1.1 Å². Under setting [25], “SSSAGGQGSYVPLLR [_SSS(HexNAc (ST))AGGQGSYVPLLR_]” showed a collision cross section of 427.89 ± 0.57 Å². Under setting [26], STCTYVGAAK [_STCTY(Nitro (Y))VGAAK_] yielded a collision cross section of 340.86 ± 0.72 Å². STCTYVGAAK [_STCTY(Phospho (Y))VGAAK_] showed a collision cross section under setting [27] of 346.22 ± 0.0011 Å².

For the sequence “STGLELETPSLVPVKK [_STGLELETPSLVPVK(Acetyl (K))K_]”, the collision cross section is, setting by setting: under setting [7], 431.84 ± 2.2 Å²; under setting [8], 518.73 ± 1.1 Å². Take “STGLELETPSLVPVKK [_STGLELETPSLVPVK(Biotin)K_]”: the collision cross section under setting [9] came out at 465.71 Å².

Turning to “STGLELETPSLVPVKK [_STGLELETPSLVPVK(Butyryl)K_]”, the collision cross section is on record as 438.73 ± 0.53 Å² under setting [10] and 522.48 ± 2.1 Å² under setting [11]. Consider “STGLELETPSLVPVKK [_STGLELETPSLVPVK(Crotonyl)K_]”, for which the collision cross section is recorded as 437.59 Å² under setting [12] and 521.61 Å² (charge state: 3, modification: Crotonyl).

On to “STGLELETPSLVPVKK [_STGLELETPSLVPVK(Dimethyl (K))K_]”, for which the collision cross section by setting is: under setting [13], 456.56 ± 2.3 Å²; under setting [14], 515.08 ± 1.7 Å². For the sequence “STGLELETPSLVPVKK [_STGLELETPSLVPVK(Formyl)K_]”, the collision cross section reads like this: under setting [15], 431.64 ± 1.2 Å²; under setting [16], 516.5 ± 3 Å². “STGLELETPSLVPVKK [_STGLELETPSLVPVK(Gluratylation)K_]” registered a collision cross section under setting [17] of 457.67 ± 1.1 Å² and a collision cross section under setting [18] of 527.31 ± 1.8 Å². In the case of “STGLELETPSLVPVKK [_STGLELETPSLVPVK(GlyGly (K))K_]”, the collision cross section runs as follows: under setting [19], 452.54 ± 1.9 Å²; under setting [20], 530.27 ± 9.4 Å².

In turn, “STGLELETPSLVPVKK [_STGLELETPSLVPVK(Malonyl)K_]” registered a collision cross section under setting [21] of 445.74 ± 0.66 Å². With “STGLELETPSLVPVKK [_STGLELETPSLVPVK(Methyl (K))K_]”, the collision cross section by setting is: under setting [22], 452.34 ± 2.6 Å²; under setting [23], 516.69 ± 3.1 Å². On to “STGLELETPSLVPVKK [_STGLELETPSLVPVK(Propionyl)K_]”, for which the collision cross section under setting [1] turned out to be 435.15 Å². On to “STGLELETPSLVPVKK [_STGLELETPSLVPVK(Succinyl)K_]”, for which the collision cross section runs as follows: under setting [2], 449.72 ± 9.5 Å²; under setting [3], 499.21 ± 23 Å². “STGLELETPSLVPVKK [_STGLELETPSLVPVK(Trimethyl (K))K_]” came in with a collision cross section under setting [4] of 461.73 ± 1.2 Å² and a collision cross section under setting [5] of 522.47 ± 0.88 Å². With “STGLELETPSLVPVKK [_STGLELETPSLVPVK(hydroxyisobutyryl)K_]”, the collision cross section is, setting by setting: under setting [6], 440.07 ± 0.82 Å²; under setting [24], 511.71 ± 25 Å². As for “STLEEPNLQPLQR [_S(HexNAc (ST))TLEEPNLQPLQR_]”, under setting [25], the collision cross section turned out to be 436.25 ± 0.56 Å². “STNVTVAAARGIK [_STNVTVAAAR(Citrullination (R))GIK_]”: the collision cross section by setting is: (charge state: 2, modification: Citrullination (R)) 395.23 ± 1.3 Å²; (charge state: 3, modification: Citrullination (R)) 471.03 Å². As to “STNVTVAAARGIK [_STNVTVAAAR(Methyl (R))GIK_]”, the collision cross section reads like this: (charge state: 2, modification: Methyl (R)) 403.35 ± 0.97 Å²; (charge state: 3, modification: Methyl (R)) 483.31 ± 3.1 Å². In turn, “SVGGSGGGSFGDNLVTR [_SVGGSGGGSFGDNLVT(HexNAc (ST))R_]” came in with a collision cross section under setting [25] of 423.68 ± 0.13 Å². As to SVSSSSYR [_SVSSSSY(Nitro (Y))R_], under setting [26], the collision cross section was found to be 311.12 ± 0.16 Å². Under setting [27], SVSSSSYR [_SVSSSSY(Phospho (Y))R_] gave a collision cross section of 317.55 ± 0.69 Å². Turning to “SYGIPYIETSAK [_SY(Nitro (Y))GIPYIETSAK_]”, the collision cross section under setting [26] is recorded as 386.26 ± 0.17 Å². “SYGIPYIETSAK [_SY(Phospho (Y))GIPYIETSAK_]” yielded a collision cross section under setting [27] of 390.55 ± 0.64 Å². As for SYHLQIVTK [_SY(Nitro (Y))HLQIVTK_], the collision cross section is 345.14 ± 0.74 Å² under setting [26] and 449.3 ± 1.2 Å² (charge state: 3, modification: Nitro (Y)). For SYHLQIVTK [_SY(Phospho (Y))HLQIVTK_], the collision cross section was determined as 357.29 ± 0.065 Å² under setting [27] and 461.35 ± 0.12 Å² (charge state: 3, modification: Phospho (Y)).

As for “SYISSQTNDTHK [_S(HexNAc (ST))YISSQTNDTHK_]”, the collision cross section under setting [25] stood at 405.45 ± 0.67 Å². The sequence “SYISSQTNDTHK [_SYIS(HexNAc (ST))SQTNDTHK_]” showed a collision cross section under setting [28] of 474.05 ± 0.17 Å².

With “SYSVGASGSSSR [_SY(Nitro (Y))SVGASGSSSR_]”, the collision cross section under setting [26] was found to be 351.9 ± 1.2 Å². With “SYSVGASGSSSR [_SY(Phospho (Y))SVGASGSSSR_]”, under setting [27], the collision cross section is reported as 356.68 ± 0.65 Å².

For SYVDTGGVSR [_SY(Nitro (Y))VDTGGVSR_], under setting [26], the collision cross section is reported as 342.4 ± 0.16 Å².

The sequence SYVDTGGVSR [_SY(Phospho (Y))VDTGGVSR_] had a collision cross section under setting [27] of 347.56 ± 0.066 Å². As for “TAGSSGVTAGRPRPTAR [_TAGSSGVTAGRPRPT(HexNAc (ST))AR_]”, the collision cross section under setting [28] is on record as 527.29 ± 0.18 Å². The sequence TAIQAAGYPDK [_TAIQAAGY(Nitro (Y))PDK_] had a collision cross section under setting [26] of 354.49 ± 0.55 Å². For the sequence “TAIQAAGYPDK [_TAIQAAGY(Phospho (Y))PDK_]”, under setting [27], the collision cross section came to 361.65 ± 9.9 Å². The sequence TATLATLATR [_TATLATLAT(HexNAc (ST))R_] displayed a collision cross section under setting [25] of 364.8 ± 0.64 Å². As to “TELLPGDRDNLAIQTR [_TELLPGDRDNLAIQT(HexNAc (ST))R_]”, the collision cross section under setting [28] is recorded as 528.81 ± 0.18 Å².
